Measured values: patent US7144731B2, “SCF antibody compositions and methods of using the same” (Amgen Inc., priority 1989, dated 2006)

Key:
[1] = system: 5-FU treated mouse bone marrow cells; experiment: HPP-CFC assay; type: cell-based; details: typical assay; plated with CSF-1 or IL-6
From the text: There are a variety of biological activities which can be attributed to the natural mammalian rat SCF as well as the recombinant rat SCF protein. One such activity is its effect on early hematopoietic cells. This activity can be measured in a High Proliferative Potential Colony Forming Cell (HPP-CFC) assay [Zsebo, et al., supra (1988)]. To investigate the effects of factors on early hematopoietic cells, the HPP-CFC assay system utilizes mouse bone marrow derived from animals 2 days after 5-fluorouracil (5-FU) treatment. […] The rat SCF is plated in the presence of CSF-1 or IL-6 in semi-solid agar cultures. The agar cultures contain McCoys complete medium (GIBCO), 20% fetal bovine serum, 0.3% agar, and 2×10^5 bone marrow cells/ml. The McCoys complete medium contains the following components: 1× McCoys medium supplemented with 0.1 mM pyruvate, 0.24× essential amino acids, 0.24× non-essential amino acids, 0.027% sodium bicarbonate, 0.24× vitamins, 0.72 mM glutamine, 25 μg/ml L-serine, and 12 μg/ml L-asparagine. The bone marrow cells are obtained from Balb/c mice injected i.v. with 150 mg/kg 5-FU. The femurs are harvested 2 days post 5-FU treatment of the mice and bone marrow is flushed out. The red blood cells are lysed with red blood cell lysing reagent (Becton Dickenson) prior to plating. Test substances are plated with the above mixture in 30 mm dishes. Fourteen days later the colonies (>1 mm in diameter) which contain thousands of cells are scored. This assay was used throughout the purification of natural mammalian cell-derived rat SCF.

[2] = system: murine mast cell line, MC/9; experiment: MC/9 ^3H-thymidine uptake assay; type: cell-based; details: typical
Method: Another useful biological activity of both naturally-derived and recombinant rat SCF is the ability to cause the proliferation of the […] murine mast cell line, MC/9 (ATCC CRL 8306). MC/9 cells are cultured with a source of […] according to the ATCC CRL 8306 protocol. The medium used in the bioassay is RPMI 1640, 4% fetal bovine serum, 5×10^−5M 2-mercaptoethanol, and 1× glutamine-pen-strep. The MC/9 cells proliferate in response to SCF without the requirement for other growth factors. This proliferation is measured by first culturing the cells for 24 h without growth factors, plating 5000 cells in each well of 96 well plates with test sample for 48 h, pulsing for 4 h with 0.5 uCi ^3H-thymidine (specific activity 20 Ci/mmol), harvesting the solution onto glass fiber filters, and then measuring specifically-bound radioactivity. This assay was used in the purification of mammalian cell derived rat SCF after the ACA 54 gel filtration step, section C2 of this Example. Typically, SCF caused a 4–10 fold increase in CPM over background.

normal mouse bone marrow = experiment: CFU-GM assay on normal mouse bone marrow; type: cell-based; details: 10 day period, no other factors
Method: The action of purified mammalian SCF, both naturally-derived and recombinant, free from interfering colony stimulating factors (CSFs), on normal undepleted mouse bone marrow has been ascertained. A CFU-GM assay [Broxmeyer et al. Exp. Hematol., 5, 87 (1977)] is used to evaluate the effect of SCF on normal marrow. Briefly, total bone marrow cells after lysis of red blood cells are plated in semi-solid agar cultures containing the test substance. After.10 days, the colonies containing clusters of >40 cells are scored. The agar cultures can be dried down onto glass slides and the morphology of the cells can be determined via specific histological stains.

[3] = system: bone marrow cells (CFU-S); experiment: pre-CFU-S assay; type: cell-based, mouse
Method: The in vitro survival and proliferation of primitive stem cells is critical to the success of gene transfer mediated by retroviral insertion or other known methods of gene transfer. The effect of SCF on the in vitro maintenance and/or proliferation of primitive progenitor cells has been studied in two systems which have been described previously [Bodine et al., Proc. Natl. Acad. Sci. 86 8897–8901, 1989]. The first is a pre-CFU-S assay wherein bone marrow cells are incubated for up to six days in suspension culture in the presence of growth factors. Aliquots are injected into lethally iradiated mice and the mice sacrificed at 12–14 days for quantitation of spleen focus formation. […] The second is a competitive repopulation assay which measures the effects of growth factors on recovery and biological activity of cells capable of sustaining long-term hematopoiesis. Cells from two congenic strains of mice differing for a hemoglobin marker are incubated in suspension independently, cells from one strain as a control and cells from a second under experimental conditions. After incubation, equal numbers of bone marrow cells from both cultures are mixed and injected into W/W^v recipients.

B1: rat SCF: rat stem cell factor, natural (purified from BRL 3A conditioned medium) or recombinant; form not specified at the place (protein, UniProt P21581 26-190, looked up)
Soluble KIT ligand: QEICRNPVTDNVKDITKLVANLPNDYMITLNYVAGMDVLPSHCWLRDMVTHLSVSLTTLLDKFSNISEGLSNYSIIDKLGKIVDDLVACMEENAPKNVKESLKKPETRNFTPEEFFSIFNRSIDAFKDFMVASDTSDCVLSSTLGPEKDSRVSVTKPFMLPPVAA
Q: Which results are given for B1?
A: HPP-CFC per 200,000 cells plated [1]: approximately 50; increase in CPM over background [2]: 4–10 fold; colonies from 200,000 cells plated (normal mouse bone marrow): over 100; activity in the pre-CFU-S assay [3]: very little activity
